Test results from patent US20260274985A1 (MYTHIC THERAPEUTICS, published 2026).

T1: TROP2 on TROP2-positive NCI-H1975 cells (human, UniProt P09758 27-323)
T1 sequence: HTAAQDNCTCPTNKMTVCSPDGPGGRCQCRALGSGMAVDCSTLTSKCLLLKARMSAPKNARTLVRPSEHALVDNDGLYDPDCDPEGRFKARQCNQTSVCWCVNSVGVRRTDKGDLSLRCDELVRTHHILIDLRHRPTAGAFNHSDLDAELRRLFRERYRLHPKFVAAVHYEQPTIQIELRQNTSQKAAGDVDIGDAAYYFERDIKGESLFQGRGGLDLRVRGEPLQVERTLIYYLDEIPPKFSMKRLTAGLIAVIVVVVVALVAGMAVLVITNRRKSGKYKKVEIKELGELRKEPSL

T2: Human TROP2 Protein, His Tag (Acro Biosystems) (human, UniProt P09758 27-274)
T2 construct: not shown: His tag
T2 sequence (looked up): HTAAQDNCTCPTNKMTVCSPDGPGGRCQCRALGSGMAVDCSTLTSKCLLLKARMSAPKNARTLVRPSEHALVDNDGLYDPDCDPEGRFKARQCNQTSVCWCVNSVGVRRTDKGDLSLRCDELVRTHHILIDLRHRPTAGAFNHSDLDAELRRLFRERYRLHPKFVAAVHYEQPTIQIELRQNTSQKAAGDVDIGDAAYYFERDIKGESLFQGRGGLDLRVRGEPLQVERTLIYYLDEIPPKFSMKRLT

T3: Human TROP2 Protein, His Tag (Acro Biosystems) (human, UniProt P09758 27-274)
T3 construct: not shown: His tag
T3 sequence (looked up): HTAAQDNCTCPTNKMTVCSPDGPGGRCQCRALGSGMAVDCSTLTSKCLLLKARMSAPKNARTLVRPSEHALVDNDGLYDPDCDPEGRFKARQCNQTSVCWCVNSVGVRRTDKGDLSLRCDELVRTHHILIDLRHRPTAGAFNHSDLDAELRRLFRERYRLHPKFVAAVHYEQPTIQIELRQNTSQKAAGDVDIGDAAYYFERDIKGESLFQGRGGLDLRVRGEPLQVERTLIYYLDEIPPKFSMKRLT


What was measured:
[1] = target: T1, TROP2 on TROP2-positive NCI-H1975 cells; assay: cell-based or functional assay
[2] = target: T2, Human TROP2 Protein, His Tag (Acro …); assay: Octet BLI: IgG supernatant on anti-human Fc sensor, 50 nM TROP2-His at pH 7.4, dissociation at pH 7.4 or 5.4; Octet Binding Result 1=pH dependent
Protocol: (§1) After allowing for four days of protein expression, cell culture supernatants were collected, quantified by SDS-PAGE analysis (DNS), and the pH dependence of the variant was evaluated using biolayer interferometry (BLI) on an Octet RED 96e instrument. Briefly, cell culture supernatants were diluted based on qualitative expression level of the variant determined by visual examination of SDS-PAGE gels, 5 μL of cell culture supernatant was diluted into 195 μL of 1×PBST, pH 7.4 for high expressors, 25 μL of cell culture supernatant was diluted into 175 μL of 1×PBST, pH 7.4 for medium expressors and 100 μL of cell culture supernatant was diluted into 100 μL of 1×PBST, pH 7.4 for low expressors for loading onto the sensor tips. The resulting diluted supernatants were then captured on an anti-human Fc sensor (Forte Bio). A baseline was established using 1×PBST (50 mM Potassium Phosphate Buffer+150 mM NaCl+0.05% Tween 20) pH 7.4, and the sensor was associated with 50 nM of TROP2 (Human TROP2 Protein, His Tag, Acro Biosystems) in 1×PBST pH 7.4 for 120 sec to generate an association curve. In the dissociation phase, the antibody-antigen complex on the sensor was exposed to 1×PBST pH 7.4 or pH 5.4, for 300 sec. Association and dissociation phase curves were examined for the starting ABPC antibody (with no substitutions) and each corresponding antibody variant at pH 5.4 and pH 7.4 to inform on two criteria: a) enhanced dissociation (i.e., higher koff values) at pH 5.4 due to histidine or alanine substitution compared to the starting ABPC, (with no substitutions), and b) reduced dissociation at pH 7.4 (i.e., lower koff values) compared to pH 5.4 in the antibody variant itself and with the starting ABPC (with no substitutions). […] It was also noted that while some mutations obliterated TROP2 binding, others were tolerated with little or n change in TROP2 binding kinetics.

[3] = target: T3, Human TROP2 Protein, His Tag (Acro …); assay: BLI (Octet)
[4] = target: T2, Human TROP2 Protein, His Tag (Acro …); assay: Octet BLI: IgG supernatant on anti-human Fc sensor, 50 nM TROP2-His at pH 7.4; Octet Binding Result 3=No binding
Protocol: as §1

binding result [2]	binding result [4]	Binder	also measured
		166-DXd (antibody, IgG1, V domains shown, maleimide based GGFG-DXd conjugated to hinge cysteines, average DAR of about 4) VH: QVQLQQSGSELKKPGASVKVSCKASGYTFTNYGMNWVKQAPGQGLKWMGWINTYTGEPTYTHDFKGRFAFSLDTSVSTAYLQISSLKADDTAVYFCARGGFGSSYWYFDVWGQGSLVTVSS VL: DIQLTQSPSSLSASVGDRVSITCKASQDVHIAVAWYQQKPGKAPKLLIYSHSYRYTGVPDRFSGSGSGTDFTLTISSLQPEDFAVYYCQQHYHTPLTFGAGTKVEIK	% efficiency @ 100 nM ADC (cytotoxicity in NCI-H1975 cells) [1]: 9.57%
		165-DXd (antibody, IgG1, V domains shown, maleimide based GGFG-DXd conjugated to hinge cysteines, average DAR of about 4) VH: QVQLQQSGSELKKPGASVKVSCKASGYTFTNYGMNWVKQAPGQGLKWMGWINTYTGEPTYTDDFKGRFAFSLDTSVSTAYLQISSLKADDTAVYFCARGGFGSSYWYFDVWGQGSLVTVSS VL: DIQLTQSPSSLSASVGDRVSITCKASQDVSIAVAWYQQKPGKAPKLLIYSASYRYTGVPDRFSGSGSGTDFTLTISSLQPEDFAVYYCQQHYITPLTFGAGTKVEIK	% efficiency @ 100 nM ADC (cytotoxicity in NCI-H1975 cells) [1]: 1.47%
		167-DXd (antibody, IgG1, V domains shown, maleimide based GGFG-DXd conjugated to hinge cysteines, average DAR of about 4) VH: QVQLQQSGSELKKPGASVKVSCKASGYTFTNYGMNWVKQAPGQGLKWMGWINTYTGEPTYTDHFKGRFAFSLDTSVSTAYLQISSLKADDTAVYFCARGGFGSSYWYFDVWGQGSLVTVSS VL: DIQLTQSPSSLSASVGDRVSITCKASQDVHIAHAWYQQKPGKAPKLLIYSASYRYTGVPDRFSGSGSGTDFTLTISSLQPEDFAVYYCQQHYITPLTFGAGTKVEIK	% efficiency @ 100 nM ADC (cytotoxicity in NCI-H1975 cells) [1]: 4.86%
binds		MYT13274 (antibody, V domains shown, Full-length IgG from Expi293 supernatant; also called datopotamab heavy chain and light chain pairing variant) VH: QVQLVQSGAEVKKPGASVKVSCKASGYTFTTAGMQWVRQAPGQGLEWMGWINTHSGVPKYAEDFKGRVTISADTSTSTAYLQLSSLKSEDTAVYYCARSGHGSSYWYFDVWGQGTLVTVSS VL: DIQMTQSPSSLSASVGDRVTITCKASQDVSTAVAWYQQKPGKAPKLLIYSASYRYTGVPSRFSGSGSGTDFTLTISSLQPEDFAVYYCQQHYHTPLTFGQGTKLEIK	
binds		MYT13275 (antibody, V domains shown, Full-length IgG from Expi293 supernatant; also called datopotamab heavy chain and light chain pairing variant) VH: QVQLVQSGAEVKKPGASVKVSCKASGYTFTTAGMQWVRQAPGQGLEWMGWINTHSGVPKYAEDFKGRVTISADTSTSTAYLQLSSLKSEDTAVYYCARSGFGSHYWYFDVWGQGTLVTVSS VL: DIQMTQSPSSLSASVGDRVTITCKASQDVSTAVAWYQQKPGKAPKLLIYSASYRYTGVPSRFSGSGSGTDFTLTISSLQPEDFAVYYCQQHYHTPLTFGQGTKLEIK	
		168-DXd (antibody, IgG1, V domains shown, maleimide based GGFG-DXd conjugated to hinge cysteines, average DAR of about 4) VH: QVQLQQSGSELKKPGASVKVSCKASGYTFTNYGMNWVKQAPGQGLKWMGWINTYTGEPTYTDDHKGRFAFSLDTSVSTAYLQISSLKADDTAVYFCARGGFGSSYWYFDVWGQGSLVTVSS VL: DIQLTQSPSSLSASVGDRVSITCKASQDVHIAVAWYQQKPGKAPKLLIYSHSYRYTGVPDRFSGSGSGTDFTLTISSLQPEDFAVYYCQQHYHTPLTFGAGTKVEIK	% efficiency @ 100 nM ADC (cytotoxicity in NCI-H1975 cells) [1]: 7.32%
		MYT12392 (antibody, V domains shown, datopotamab VL 51, 52 substituted) VH: QVQLVQSGAEVKKPGASVKVSCKASGYTFTTAGMQWVRQAPGQGLEWMGWINTHSGVPKYAEDFKGRVTISADTSTSTAYLQLSSLKSEDTAVYYCARSGFGSSYWYFDVWGQGTLVTVSS VL: DIQMTQSPSSLSASVGDRVTITCKASQDVSTAVAWYQQKPGKAPKLLIYSHHYRYTGVPSRFSGSGSGTDFTLTISSLQPEDFAVYYCQQHYITPLTFGQGTKLEIK	binding result [3]: binds
binds		MYT13273 (antibody, V domains shown, Full-length IgG from Expi293 supernatant; also called datopotamab heavy chain and light chain pairing variant) VH: QVQLVQSGAEVKKPGASVKVSCKASGYTFTTAGMQWVRQAPGQGLEWMGWINTHSGVPKYAEDFKGRVTISADTSTSTAYLQLSSLKSEDTAVYYCAHSGFGSSYWYFDVWGQGTLVTVSS VL: DIQMTQSPSSLSASVGDRVTITCKASQDVSTAVAWYQQKPGKAPKLLIYSASYRYTGVPSRFSGSGSGTDFTLTISSLQPEDFAVYYCQQHYHTPLTFGQGTKLEIK	
binds		MYT13267 (antibody, V domains shown, Full-length IgG from Expi293 supernatant; also called datopotamab heavy chain and light chain pairing variant) VH: QVQLVQSGAEVKKPGASVKVSCKASGYTFTTAGMQWVRQAPGQGLEWMGWINTHSGVPKYAEDFKGRVTISADTSTSTAYLQLSSLKSEDTAVYYCARSGFGSHYWYFDVWGQGTLVTVSS VL: DIQMTQSPSSLSASVGDRVTITCKASQDVSTAVAWYQQKPGKAPKLLIYSASHRYTGVPSRFSGSGSGTDFTLTISSLQPEDFAVYYCQQHYITPLTFGQGTKLEIK	
binds		MYT13266 (antibody, V domains shown, Full-length IgG from Expi293 supernatant; also called datopotamab heavy chain and light chain pairing variant) VH: QVQLVQSGAEVKKPGASVKVSCKASGYTFTTAGMQWVRQAPGQGLEWMGWINTHSGVPKYAEDFKGRVTISADTSTSTAYLQLSSLKSEDTAVYYCARSGHGSSYWYFDVWGQGTLVTVSS VL: DIQMTQSPSSLSASVGDRVTITCKASQDVSTAVAWYQQKPGKAPKLLIYSASHRYTGVPSRFSGSGSGTDFTLTISSLQPEDFAVYYCQQHYITPLTFGQGTKLEIK	
	no binding (tested: 50 nM)	MYT13306 (antibody, V domains shown, Full-length IgG from Expi293 supernatant; also called hu7E6SVG heavy chain and light chain pairing variant) VH: QVQLQESGPGLVKPSETLSLTCTVSGGSISSYGVHWIRQPPGKGLEWIGVHWTSGVTDYNSALMGRVTISVDTSKNQFSLKLSSVTAADTAVYYCARDGDYDRYTMDYWGQGTLVTVSS VL: DIVMTQSPDSLAVSLGERATINCRASKSVSTSGYSYMHWYQQKPGQPPKLLIYLASNLHSGVPDRFSGSGSGTDFTLTISSLQAEDVAVYYCQASRELPYTFGQGTKLEIK	
	no binding (tested: 50 nM)	MYT13312 (antibody, V domains shown, Full-length IgG from Expi293 supernatant; also called hu7E6SVG heavy chain and light chain pairing variant) VH: QVQLQESGPGLVKPSETLSLTCTVSGGSISSYGVHWIRQPPGKGLEWIGVIWTSGHTDYNSALMGRVTISVDTSKNQFSLKLSSVTAADTAVYYCARDGDYDRYTMDYWGQGTLVTVSS VL: DIVMTQSPDSLAVSLGERATINCRASKSVSTSGYSYMHWYQQKPGQPPKLLIYLASNLHSGVPDRFSGSGSGTDFTLTISSLQAEDVAVYYCQHSRELPYHFGQGTKLEIK	
	no binding (tested: 50 nM)	MYT13311 (antibody, V domains shown, Full-length IgG from Expi293 supernatant; also called hu7E6SVG heavy chain and light chain pairing variant) VH: QVQLQESGPGLVKPSETLSLTCTVSGGSISSYGVHWIRQPPGKGLEWIGVHWTSGVTDYNSALMGRVTISVDTSKNQFSLKLSSVTAADTAVYYCARDGDYDRYTMDYWGQGTLVTVSS VL: DIVMTQSPDSLAVSLGERATINCRASKSVSTSGYSYMHWYQQKPGQPPKLLIYLASNLHSGVPDRFSGSGSGTDFTLTISSLQAEDVAVYYCQHSRELPYHFGQGTKLEIK	
	no binding (tested: 50 nM)	MYT13307 (antibody, V domains shown, Full-length IgG from Expi293 supernatant; also called hu7E6SVG heavy chain and light chain pairing variant) VH: QVQLQESGPGLVKPSETLSLTCTVSGGSISSYGVHWIRQPPGKGLEWIGVIWTSGHTDYNSALMGRVTISVDTSKNQFSLKLSSVTAADTAVYYCARDGDYDRYTMDYWGQGTLVTVSS VL: DIVMTQSPDSLAVSLGERATINCRASKSVSTSGYSYMHWYQQKPGQPPKLLIYLASNLHSGVPDRFSGSGSGTDFTLTISSLQAEDVAVYYCQASRELPYTFGQGTKLEIK	
	no binding (tested: 50 nM)	MYT13443 (antibody, V domains shown, Full-length IgG from Expi293 supernatant; also called hu7E6SVG heavy chain and light chain pairing variant) VH: QVQLQESGPGLVKPSETLSLTCTVSGGSISSYGVHWIRQPPGKGLEWIGVHWTSGVTDYNSALMGRVTISVDTSKNQFSLKLSSVTAADTAVYYCARDGDYDRYTMDYWGQGTLVTVSS VL: DIVMTQSPDSLAVSLGERATINCRASKSVSTSGYSYMHWYQQKPGQPPKLLIYLASNLHSGVPDRFSGSGSGTDFTLTISSLQAEDVAVYYCQHSRELPYHFGQGTKLEIK	
